Data set [1] deals with the molecule itself. Put plainly: cryo-EM structure; ATP-bound FtsE^E163QX^Δ4-18-EnvC(35-420) reconstituted in PMAL-C8, about 1 mg/ml, 3.11 Å.
Data set [2] has as its target T1, EnvC_(35-420) (E. coli K-12, UniProt P37690 35-419).
T1 construct: Only part of the coiled-coil domain is modelled in the cryo-EM structure; also called ecEnvC; source: E. coli C43(DE3), purified (Ni-NTA, SEC, TEV, Ni-NTA, SEC); not shown: His8, N-terminal, cleaved; SUMO, N-terminal, cleaved; Strep tag II, C-terminal, kept
T1 sequence (looked up): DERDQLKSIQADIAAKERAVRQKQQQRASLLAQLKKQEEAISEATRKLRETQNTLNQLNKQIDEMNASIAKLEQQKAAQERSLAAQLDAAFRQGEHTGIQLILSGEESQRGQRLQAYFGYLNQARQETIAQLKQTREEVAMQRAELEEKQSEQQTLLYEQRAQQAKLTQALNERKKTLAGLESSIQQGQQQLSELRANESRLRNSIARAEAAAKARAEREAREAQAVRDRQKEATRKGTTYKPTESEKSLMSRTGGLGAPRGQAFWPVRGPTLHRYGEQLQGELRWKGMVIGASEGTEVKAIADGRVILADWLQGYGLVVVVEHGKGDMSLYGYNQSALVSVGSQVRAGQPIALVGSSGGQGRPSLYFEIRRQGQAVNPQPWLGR
Put plainly: pull-down + SEC; purified FtsE^E163QX or FtsX incubated with EnvC(35-420)-Strep at a molar ratio of 1:1.5, moved into PMAL-C8; Strep column to remove unbound FtsEX or FtsX, then Superdex 200 in 20 mM Tris pH 8.0, 300 mM NaCl (1 mM ATP for FtsE^E163QX); peak validated by SDS-PAGE. The settings on record: both partners purified.

The target of data set [3] is T1, EnvC_(35-420). Put plainly: cryo-EM structure; ATP-bound FtsE^E163QX^Δ4-18-EnvC(35-420) reconstituted in PMAL-C8, about 1 mg/ml, 3.11 Å. Conditions: both partners purified.

B1: FtsE^E163Q (natural protein, E. coli K-12, UniProt P0A9R7 1-222, looked up)
chain: MIRFEHVSKAYLGGRQALQGVTFHMQPGEMAFLTGHSGAGKSTLLKLICGIERPSAGKIWFSGHDITRLKNREVPFLRRQIGMIFQDHHLLMDRTVYDNVAIPLIIAGASGDDIRRRVSAALDKVGLLDKAKNFPIQLSGGEQQRVGIARAVVNKPAVLLADQPTGNLDDALSEGILRLFEEFNRVGVTVLMATHDINLISRRSYRMLTLSDGHLHGGVGHE
notes: The pSUMO plasmid adds an N-terminal His8-SUMO-TEV site, removed by TEV; Two copies stand in the FtsEX complex; also called ecFtsE^E163Q; not shown: His8 (chain inferred: first gene of pSUMO-ftsEX), N-terminal, cleaved; SUMO (chain inferred: first gene of pSUMO-ftsEX), N-terminal, cleaved
For B1, the binding result in data set [1] is on record as “binds”.

B2: FtsX (purified alone) (natural protein, E. coli K-12, UniProt P0AC30 1-352, looked up)
chain: MNKRDAINHIRQFGGRLDRFRKSVGGSGDGGRNAPKRAKSSPKPVNRKTNVFNEQVRYAFHGALQDLKSKPFATFLTVMVIAISLTLPSVCYMVYKNVNQAATQYYPSPQITVYLQKTLDDDAAAGVVAQLQAEQGVEKVNYLSREDALGEFRNWSGFGGALDMLEENPLPAVAVVIPKLDFQGTESLNTLRDRITQINGIDEVRMDDSWFARLAALTGLVGRVSAMIGVLMVAAVFLVIGNSVRLSIFARRDSINVQKLIGATDGFILRPFLYGGALLGFSGALLSLILSEILVLRLSSAVAEVAQVFGTKFDINGLSFDECLLLLLVCSMIGWVAAWLATVQHLRHFTPE
notes: FtsX, E. coli K-12; The plasmid section describes pET28a-ftsX (N-terminal 8xHis); the purification section names pSUMO-ftsX (His8-SUMO), tag not removed; Whether SUMO stood on the protein is open; not shown: His8, N-terminal, kept
With B2, in the data set with EnvC_(35-420) [2], the binding result is listed as “binds”.

B3: FtsX^Δ4–18 (natural protein, E. coli K-12, UniProt P0AC30 1-352, looked up)
chain: MNKRFRKSVGGSGDGGRNAPKRAKSSPKPVNRKTNVFNEQVRYAFHGALQDLKSKPFATFLTVMVIAISLTLPSVCYMVYKNVNQAATQYYPSPQITVYLQKTLDDDAAAGVVAQLQAEQGVEKVNYLSREDALGEFRNWSGFGGALDMLEENPLPAVAVVIPKLDFQGTESLNTLRDRITQINGIDEVRMDDSWFARLAALTGLVGRVSAMIGVLMVAAVFLVIGNSVRLSIFARRDSINVQKLIGATDGFILRPFLYGGALLGFSGALLSLILSEILVLRLSSAVAEVAQVFGTKFDINGLSFDECLLLLLVCSMIGWVAAWLATVQHLRHFTPE
notes: FtsX, E. coli K-12, with residues 4-18 deleted; The results call the cryo-EM sample FtsE^E163QX; the methods say that the grids held FtsE^E163QX^Δ4-18; also called ecFtsX
Take B3: the binding result (with EnvC_(35-420) [3]; in data set [1]) was “binds” in each case.

For the origin of these results see PMC11139282, “Structure and activity of the septal peptidoglycan hydrolysis machinery crucial for bacterial cell division” (PLOS Biology, 2024).
